Measurements as given in patent publication US20240317847A1 (Bayer, published 2024).

Experiments:
murine IL-11 [1] = biological target: T1, murine IL-11 (mouse, UniProt P47873 22-199); experiment: cell-based or functional assay
T1 sequence: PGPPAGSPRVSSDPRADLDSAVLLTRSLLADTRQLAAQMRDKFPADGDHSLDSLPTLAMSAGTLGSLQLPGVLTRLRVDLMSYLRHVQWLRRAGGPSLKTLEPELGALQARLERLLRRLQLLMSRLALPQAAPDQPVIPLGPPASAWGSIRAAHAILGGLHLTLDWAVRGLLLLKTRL

human IL-11 [2] = biological target: T2, human IL-11 (human, UniProt P20809 22-199); experiment: cell-based or functional assay
T2 sequence: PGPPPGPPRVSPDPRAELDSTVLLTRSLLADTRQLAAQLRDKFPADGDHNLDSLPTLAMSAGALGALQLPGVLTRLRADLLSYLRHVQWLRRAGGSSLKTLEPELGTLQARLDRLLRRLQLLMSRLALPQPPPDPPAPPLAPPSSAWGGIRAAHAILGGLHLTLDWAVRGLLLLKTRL

human IL2Ra = biological target: T3, human IL2Ra (human, UniProt P01589 22-240, limits assumed); experiment: IL2Ra direct binding ELISA, signal ratio to isotype control
T3 construct: bought protein, coated on the plate; also called hIL2RA; IL-2 receptor alpha
T3 sequence (looked up): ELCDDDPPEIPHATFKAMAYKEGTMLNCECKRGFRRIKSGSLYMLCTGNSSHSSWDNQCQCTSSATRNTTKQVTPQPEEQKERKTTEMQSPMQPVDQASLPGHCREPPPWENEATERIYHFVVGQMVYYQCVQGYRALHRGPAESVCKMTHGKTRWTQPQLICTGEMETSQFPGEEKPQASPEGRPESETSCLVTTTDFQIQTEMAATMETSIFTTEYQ
Experimental: IL2RA (Peprotech, Germany, #200-02RC) was coated at 1 or 0 μg/ml (buffer only control) in 30 μl coating buffer (Candor, #113500) per well on a 384 well microtiter plate (Maxisorb, Nunc, #460518) over night at 4-8° C. After two washes with 50 μl/well washing buffer (PBS+0.05% Tween, pH 7.4), the plates were incubated for two hours at room temperature with 50 μl/well SmartBlock (Candor, #113500). After blocking, the plates were washed three times with washing buffer. Then, a dilution series of the respective antibody (1E-7 [M] down to 2E-13 [M]) in PBS+0.05% Tween, 10% SmartBlock were added in 30 μl to the microtiter plate and incubated for 90 min at room temperature. After three additional washes, 30 μl anti mouse IgG HRP-conjugated antibody (Biotechne, HAF007), diluted 1:1000 in PBS+0.05% Tween (pH 7.4), were added per well and incubated for one hour. After three additional washes, a mixture of Amplex red (Invitrogen, #12222, 10 mM stock solution in DMSO) 1:1000 diluted in PBS and H2O2 (30%, Merck, #107209)) diluted 1:10000 in PBS were added as substrate with 30 μl per well and incubated for 20 min in the dark. Relative fluorescence was measured with a microtiter plate reader at 535/590 nm.
Next, the 42 antibodies were subjected to an IL2Ra binding ELISA as described in Example 20.

human IL-11 [3] = biological target: T4, human IL-11 (human, UniProt P20809 22-199); experiment: cell-based or functional assay; remark: listed apart in the source
T4 sequence: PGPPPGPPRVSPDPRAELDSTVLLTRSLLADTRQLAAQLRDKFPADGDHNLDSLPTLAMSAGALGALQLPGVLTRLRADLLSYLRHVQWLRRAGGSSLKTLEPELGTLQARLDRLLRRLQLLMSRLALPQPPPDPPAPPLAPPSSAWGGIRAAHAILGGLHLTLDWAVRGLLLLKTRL

murine IL-11 [4] = biological target: T5, murine IL-11 (mouse, UniProt P47873 22-199); experiment: cell-based or functional assay; remark: listed apart in the source
T5 sequence: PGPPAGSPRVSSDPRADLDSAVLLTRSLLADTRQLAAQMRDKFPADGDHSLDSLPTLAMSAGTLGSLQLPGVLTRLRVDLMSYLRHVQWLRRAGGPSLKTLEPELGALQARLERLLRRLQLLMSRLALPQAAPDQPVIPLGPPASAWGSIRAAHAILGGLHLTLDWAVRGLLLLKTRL

| Binder | IC50, RGA 1 (murine IL-11 [1]) | IC50, RGA 2 (murine IL-11 [1]) | IC50, RGA 1 (human IL-11 [2]) | IC50, RGA 2 (human IL-11 [2]) | hIL2RA ELISA Binding: Ratio to Isotpye (human IL2Ra) | RGA Efficacy (%) (human IL-11 [3]) | RGA IC50 (human IL-11 [3]) | RGA Efficacy (%) (murine IL-11 [4]) | RGA IC50 (murine IL-11 [4]) |
| --- | --- | --- | --- | --- | --- | --- | --- | --- | --- |
| TPP-31309 (antibody, IgG4, V domains shown) VH: EVQLLESGGGLVQPGGSLRLSCAASGFTFSHYDMNWLRQAPGKGLEWVGVISYDSSNKFYADFVKGRFTISRDNSKNTLYLQMNSLRAEDTAVYYCARTPGSHFDYWGQGTLVTVSS VL: QSVLTQPPSASGTPGQRVTISCSGSSSNIGNNAVNWYQQLPGTAPKLLIYYDDLLPSGVPDRFSGSKSGTSASLAISGLRSEDEADYYCSAWDDSLQGVVFGGGTKLTVL | 0.108 µM | 0.068 µM | 0.261 µM | 0.122 µM | – | – | – | – | – |
| TPP-31283 (antibody, IgG4, V domains shown) VH: EVQLLESGGGLVQPGGSLRLSCAASGFTFSHYDMNWLRQAPGKGLEWVGVISYDGSNKFYADFVKGRFTISRDNSKNTLYLQMNSLRAEDTAVYYCARTPGSHFDYWGQGTLVTVSS VL: QSVLTQPPSASGTPGQRVTISCSGSSSNIGNNAVNWYQQLPGTAPKLLIYYDDQLPSGVPDRFSGSKSGTSASLAISGLRSEDEADYYCSAWDDSLNGVVFGGGTKLTVL | 0.247 µM | 0.118 µM | > 0.5 µM | 0.2 µM | – | – | – | – | – |
| TPP-31279 (antibody, IgG4, V domains shown) VH: EVQLLESGGGLVQPGGSLRLSCAASGFTFSHYDMNWLRQAPGKGLEWVGVISYDGSNKFYADFVKGRFTISRDNSKNTLYLQMNSLRAEDTAVYYCARTPGSHFDYWGQGTLVTVSS VL: QSVLTQPPSASGTPGQRVTISCSGSSSNIGNNAVYWYQQLPGTAPKLLIYYDDLLPSGVPDRFSGSKSGTSASLAISGLRSEDEADYYCSAWDDSLNGVVFGGGTKLTVL | 0.196 µM | > 0.5 µM | > 0.5 µM | > 0.5 µM | – | – | – | – | – |
| TPP-31291 (antibody, IgG4, V domains shown) VH: EVQLLESGGGLVQPGGSLRLSCAASGFTFSHYGMNWLRQAPGKGLEWVGVISYDGSNKFYADFVKGRFTISRDNSKNTLYLQMNSLRAEDTAVYYCARTPGSHFDYWGQGTLVTVSS VL: QSVLTQPPSASGTPGQRVTISCSGSSSNIGNNAVNWYQQLPGTAPKLLIYYDDLLPSGVPDRFSGSKSGTSASLAISGLRSEDEADYYCSAWDDSLNGVVFGGGTKLTVL | > 0.5 µM | – | > 0.5 µM | – | – | – | – | – | – |
| TPP-31281 (antibody, IgG4, V domains shown) VH: EVQLLESGGGLVQPGGSLRLSCAASGFTFSHYDMNWLRQAPGKGLEWVGVISYDGSNKFYADFVKGRFTISRDNSKNTLYLQMNSLRAEDTAVYYCARTPGSHFDYWGQGTLVTVSS VL: QSVLTQPPSASGTPGQRVTISCSGSSSNIGNNAVNWYQQLPGTAPKLLIYYNDLLPSGVPDRFSGSKSGTSASLAISGLRSEDEADYYCSAWDDSLNGVVFGGGTKLTVL | > 0.5 µM | – | > 0.5 µM | – | – | – | – | – | – |
| TPP-31290 (antibody, IgG4, V domains shown) VH: EVQLLESGGGLVQPGGSLRLSCAASGFTFSSYDMNWLRQAPGKGLEWVGVISYDGSNKFYADFVKGRFTISRDNSKNTLYLQMNSLRAEDTAVYYCARTPGSHFDYWGQGTLVTVSS VL: QSVLTQPPSASGTPGQRVTISCSGSSSNIGNNAVNWYQQLPGTAPKLLIYYDDLLPSGVPDRFSGSKSGTSASLAISGLRSEDEADYYCSAWDDSLNGVVFGGGTKLTVL | > 0.5 µM | – | > 0.5 µM | – | – | – | – | – | – |
| TPP-31282 (antibody, IgG4, V domains shown) VH: EVQLLESGGGLVQPGGSLRLSCAASGFTFSHYDMNWLRQAPGKGLEWVGVISYDGSNKFYADFVKGRFTISRDNSKNTLYLQMNSLRAEDTAVYYCARTPGSHFDYWGQGTLVTVSS VL: QSVLTQPPSASGTPGQRVTISCSGSSSNIGNNAVNWYQQLPGTAPKLLIYYDNLLPSGVPDRFSGSKSGTSASLAISGLRSEDEADYYCSAWDDSLNGVVFGGGTKLTVL | 0.07 µM | 0.028 µM | 0.345 µM | 0.287 µM | – | – | – | – | – |
| TPP-31280 (antibody, IgG4, V domains shown) VH: EVQLLESGGGLVQPGGSLRLSCAASGFTFSHYDMNWLRQAPGKGLEWVGVISYDGSNKFYADFVKGRFTISRDNSKNTLYLQMNSLRAEDTAVYYCARTPGSHFDYWGQGTLVTVSS VL: QSVLTQPPSASGTPGQRVTISCSGSSSNIGNNAVNWYQQLPGTAPKLLIYRDDLLPSGVPDRFSGSKSGTSASLAISGLRSEDEADYYCSAWDDSLNGVVFGGGTKLTVL | > 0.5 µM | – | > 0.5 µM | – | – | – | – | – | – |
| TPP-31311 (antibody, IgG4, V domains shown) VH: EVQLLESGGGLVQPGGSLRLSCAASGFTFSHYDMNWLRQAPGKGLEWVGVISYDSSNKFYADFVKGRFTISRDNSKNTLYLQMNSLRAEDTAVYYCARTPGSHFDYWGQGTLVTVSS VL: QSVLTQPPSASGTPGQRVTISCSGSSSNIGNNAVNWYQQLPGTAPKLLIYYDDLLPSGVPDRFSGSKSGTSASLAISGLRSEDEADYYCSAWDDSLNAVVFGGGTKLTVL | 0.076 µM | 0.127 µM | > 0.5 µM | 0.034 µM | – | – | – | – | – |
| TPP-31310 (antibody, IgG4, V domains shown) VH: EVQLLESGGGLVQPGGSLRLSCAASGFTFSHYDMNWLRQAPGKGLEWVGVISYDSSNKFYADFVKGRFTISRDNSKNTLYLQMNSLRAEDTAVYYCARTPGSHFDYWGQGTLVTVSS VL: QSVLTQPPSASGTPGQRVTISCSGSSSNIGNNAVNWYQQLPGTAPKLLIYYDDLLPSGVPDRFSGSKSGTSASLAISGLRSEDEADYYCSAWDDSLSGVVFGGGTKLTVL | 0.144 µM | 0.075 µM | > 0.5 µM | > 0.5 µM | – | – | – | – | – |
| TPP-26291 (antibody, V domains shown) VH: EVQLLESGGGLVQPGGSLRLSCAASGFTFSSYGMHWVRQAPGKGLEWVSVISYDGSYKYYADSVKGRFTISRDNSKNTLYLQMNSLRAEDTAVYYCAAGVPDYWGQGTLVTVSS VL: QSVLTQPPSASGTPGQRVTISCTGSSSNIGAGYDVHWYQQLPGTAPKLLIYSNNERPSGVPDRFSGSKSGTSASLAISGLRSEDEADYYCAAWDPSLNGPVFGGGTKLTVL | – | – | – | – | 334 ratio | 68.9% | 0.0041 µM | 92.1% | 0.0016 µM |
| TPP-26294 (antibody, V domains shown) VH: EVQLLESGGGLVQPGGSLRLSCAASGFTFSSYGMHWVRQAPGKGLEWVSVISYDGSYKYYADSVKGRFTISRDNSKNTLYLQMNSLRAEDTAVYYCAAGVPDYWGQGTLVTVSS VL: QSVLTQPPSASGTPGQRVTISCTGSSSNIGAAYDVHWYQQLPGTAPKLLIYSNNERPSGVPDRFSGSKSGTSASLAISGLRSEDEADYYCAAWDDSLNGPVFGGGTKLTVL | – | – | – | – | 275 ratio | 69.4% | 0.0098 µM | 97.9% | 0.0015 µM |
| TPP-26292 (antibody, V domains shown) VH: EVQLLESGGGLVQPGGSLRLSCAASGFTFSSYGMHWVRQAPGKGLEWVSVISYDGSYKYYADSVKGRFTISRDNSKNTLYLQMNSLRAEDTAVYYCAAGVPDYWGQGTLVTVSS VL: QSVLTQPPSASGTPGQRVTISCTGSSSNIGAGYDVHWYQQLPGTAPKLLIYSNNERPSGVPDRFSGSKSGTSASLAISGLRSEDEADYYCAAWDESLNGPVFGGGTKLTVL | – | – | – | – | 557 ratio | 74% | 0.0056 µM | 94.7% | 0.00094 µM |
| TPP-26293 (antibody, V domains shown) VH: EVQLLESGGGLVQPGGSLRLSCAASGFTFSSYGMHWVRQAPGKGLEWVSVISYDGSYKYYADSVKGRFTISRDNSKNTLYLQMNSLRAEDTAVYYCAAGVPDYWGQGTLVTVSS VL: QSVLTQPPSASGTPGQRVTISCTGSSSNIGAWYDVHWYQQLPGTAPKLLIYSNNERPSGVPDRFSGSKSGTSASLAISGLRSEDEADYYCAAWDDSLNGPVFGGGTKLTVL | – | – | – | – | 384 ratio | 73.7% | 0.0028 µM | 96.9% | 0.00095 µM |
